Measured values: article PMC10397247
One block for each binder: values may come before it.

How the values were obtained:
[1] = target: T1, 4H570-bA; assay: two-hybrid library CCNG1;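 also: natural log of median RNA to DNA barcode read ratio; higher means stronger binding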
T1 chain: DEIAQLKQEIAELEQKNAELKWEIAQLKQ

[2] = target: T2, 4H3172-bA; assay: two-hybrid library CCNG1;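 also: natural log of median RNA to DNA barcode read ratio; higher means stronger binding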
T2 chain: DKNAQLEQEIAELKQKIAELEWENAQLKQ

[3] = target: T3, 4H3817-bA; assay: two-hybrid library CCNG1;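 also: natural log of median RNA to DNA barcode read ratio; higher means stronger binding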
T3 chain: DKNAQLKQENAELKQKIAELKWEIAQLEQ

[4] = target: T4, 4H3414-bA; assay: two-hybrid library CCNG1;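 also: natural log of median RNA to DNA barcode read ratio; higher means stronger binding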
T4 chain: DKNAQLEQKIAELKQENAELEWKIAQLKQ

[5] = target: T5, 4H850-bA; assay: two-hybrid library CCNG1;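 also: natural log of median RNA to DNA barcode read ratio; higher means stronger binding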
T5 chain: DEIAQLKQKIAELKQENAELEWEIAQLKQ

[6] = target: T6, 4H3638-bA; assay: two-hybrid library CCNG1;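 also: natural log of median RNA to DNA barcode read ratio; higher means stronger binding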
T6 chain: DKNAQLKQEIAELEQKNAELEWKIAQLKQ

[7] = target: T7, 4H906-bA; assay: two-hybrid library CCNG1
T7 chain: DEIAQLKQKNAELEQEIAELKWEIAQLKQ

[8] = target: T8, 4H619-bA; assay: two-hybrid library CCNG1
T8 chain: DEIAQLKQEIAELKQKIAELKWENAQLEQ

[9] = target: T9, 4H3631-bA; assay: two-hybrid library CCNG1
T9 chain: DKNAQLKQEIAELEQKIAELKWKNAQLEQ

[10] = target: T10, 4H3974-bA; assay: two-hybrid library CCNG1
T10 chain: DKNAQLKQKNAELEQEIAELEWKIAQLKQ

[11] = target: T11, 4H584-bA; assay: two-hybrid library CCNG1
T11 chain: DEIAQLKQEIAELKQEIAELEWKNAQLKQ

[12] = target: T12, 4H32-AA; assay: two-hybrid library CCmax; conditions: mean of both orientations
T12 chain: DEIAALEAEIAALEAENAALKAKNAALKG

[13] = target: T13, 4H2907-AA; assay: two-hybrid library CCmax; conditions: mean of both orientations
T13 chain: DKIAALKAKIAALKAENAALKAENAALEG

[14] = target: T14, 4H3588-AA; assay: two-hybrid library CCmax; conditions: mean of both orientations
T14 chain: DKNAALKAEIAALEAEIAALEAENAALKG

[15] = target: T15, 4H2620-AA; assay: two-hybrid library CCmax; conditions: mean of both orientations
T15 chain: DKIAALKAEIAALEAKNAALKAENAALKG

[16] = target: T16, 4H2198-AA; assay: two-hybrid library CCmax; conditions: mean of both orientations
T16 chain: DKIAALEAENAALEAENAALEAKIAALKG

[17] = target: T17, 4H3718-AA; assay: two-hybrid library CCmax; conditions: mean of both orientations
T17 chain: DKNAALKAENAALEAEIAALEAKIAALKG

[18] = target: T18, 4H1874-AA; assay: two-hybrid library CCmax; conditions: mean of both orientations
T18 chain: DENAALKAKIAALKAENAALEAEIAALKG

[19] = target: T19, 4H2648-AA; assay: two-hybrid library CCmax; conditions: mean of both orientations
T19 chain: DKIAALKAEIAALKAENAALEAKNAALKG

[20] = target: T20, 4H3865-AA; assay: two-hybrid library CCmax; conditions: mean of both orientations
T20 chain: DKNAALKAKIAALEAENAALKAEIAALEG

[21] = target: T21, 4H3378-AA; assay: two-hybrid library CCmax; conditions: mean of both orientations
T21 chain: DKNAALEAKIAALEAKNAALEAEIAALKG

[22] = target: T22, 4H340-AA; assay: two-hybrid library CCmax; conditions: mean of both orientations
T22 chain: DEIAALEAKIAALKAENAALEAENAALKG

[23] = target: T23, 4H1845-AA; assay: two-hybrid library CCmax; conditions: mean of both orientations
T23 chain: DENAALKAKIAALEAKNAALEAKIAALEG

[24] = target: T24, 4H384-AA; assay: two-hybrid library CCmax; conditions: mean of both orientations
T24 chain: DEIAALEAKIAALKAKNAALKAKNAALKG

[25] = target: T25, 4H2553-AA; assay: two-hybrid library CCmax; conditions: mean of both orientations
T25 chain: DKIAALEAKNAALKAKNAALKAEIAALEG

[26] = target: T26, 4H3162-AA; assay: two-hybrid library CCmax; conditions: mean of both orientations
T26 chain: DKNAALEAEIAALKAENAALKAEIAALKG

[27] = target: T27, 4H3606-AA; assay: two-hybrid library CCmax; conditions: mean of both orientations
T27 chain: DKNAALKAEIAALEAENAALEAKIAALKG

[28] = target: T28, 4H3133-AA; assay: two-hybrid library CCmax; conditions: mean of both orientations
T28 chain: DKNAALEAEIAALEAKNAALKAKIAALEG

[29] = target: T29, 4H3413-AA; assay: two-hybrid library CCmax; conditions: mean of both orientations
T29 chain: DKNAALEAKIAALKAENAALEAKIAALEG

[30] = target: T30, 4H3697-AA; assay: two-hybrid library CCmax; conditions: mean of both orientations
T30 chain: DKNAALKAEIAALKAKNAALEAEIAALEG

[31] = target: T31, 4H3631-AA; assay: two-hybrid library CCmax; conditions: mean of both orientations
T31 chain: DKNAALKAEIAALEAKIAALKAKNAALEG

[32] = target: T32, 4H3056-AA; assay: two-hybrid library CCmax; conditions: mean of both orientations
T32 chain: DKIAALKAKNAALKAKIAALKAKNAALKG

[33] = target: T33, 4H697-AA; assay: two-hybrid library CCmax; conditions: mean of both orientations
T33 chain: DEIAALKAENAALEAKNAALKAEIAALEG

[34] = target: T34, 4H982-AA; assay: two-hybrid library CCmax; conditions: mean of both orientations
T34 chain: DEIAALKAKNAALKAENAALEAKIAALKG

[35] = target: T35, 4H2611-AA; assay: two-hybrid library CCmax; conditions: mean of both orientations
T35 chain: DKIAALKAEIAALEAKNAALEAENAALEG

[36] = target: T36, 4H1629-AA; assay: two-hybrid library CCmax
T36 chain: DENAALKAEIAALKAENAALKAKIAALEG

[37] = target: T37, P9bHq; assay: two-hybrid library CCNG1
T37 chain: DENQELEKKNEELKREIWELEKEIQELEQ

[38] = target: T38, P8bHq; assay: two-hybrid library CCNG1
T38 chain: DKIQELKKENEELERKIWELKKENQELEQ

[39] = target: T39, P7bHq; assay: two-hybrid library CCNG1
T39 chain: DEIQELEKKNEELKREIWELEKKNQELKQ

[40] = target: T40, P6bHq; assay: two-hybrid library CCNG1
T40 chain: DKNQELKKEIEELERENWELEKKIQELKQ

[41] = target: T41, 4H967-AA; assay: two-hybrid library CCmax; conditions: mean of both orientations
T41 chain: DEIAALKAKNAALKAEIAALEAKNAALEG

[42] = target: T42, 4H953-AA; assay: two-hybrid library CCmax; conditions: mean of both orientations
T42 chain: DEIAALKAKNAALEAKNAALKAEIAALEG

[43] = target: T43, 4H568-AA; assay: two-hybrid library CCmax; conditions: mean of both orientations
T43 chain: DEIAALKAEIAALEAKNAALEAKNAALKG

[44] = target: T44, 4H687-AA; assay: two-hybrid library CCmax; conditions: mean of both orientations
T44 chain: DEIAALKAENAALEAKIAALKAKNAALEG

[45] = target: T45, 4H797-AA; assay: two-hybrid library CCmax; conditions: mean of both orientations
T45 chain: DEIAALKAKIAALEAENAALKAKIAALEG

[46] = target: T46, 4H4001-AA; assay: two-hybrid library CCmax
T46 chain: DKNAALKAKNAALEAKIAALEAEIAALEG

[47] = target: T47, 4H717-AA; assay: two-hybrid library CCmax; conditions: mean of both orientations
T47 chain: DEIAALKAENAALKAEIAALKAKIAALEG

[48] = target: T48, 4H883-AA; assay: two-hybrid library CCmax; conditions: mean of both orientations
T48 chain: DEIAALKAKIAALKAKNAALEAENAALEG

[49] = target: T49, 4H918-AA; assay: two-hybrid library CCmax; conditions: mean of both orientations
T49 chain: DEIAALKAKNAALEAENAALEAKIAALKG

Binder: DKNAQLEQEIAELKQKIAELEWENAQLKQ [4H3172-bA]
interaction score [1]: -1.11 | interaction score [2]: 1.36 | interaction score [3]: -0.291 | interaction score [4]: -0.273 | interaction score [5]: -0.244 | interaction score [6]: -0.395 | interaction score [7]: -0.0855 | interaction score [8]: -0.797 | interaction score [9]: 0.247 | interaction score [10]: 0.174 | interaction score [11]: -0.867

Binder: DENAALKAEIAALKAENAALKAKIAALEG [4H1629-AA]
interaction score [12]: -1.13 | interaction score [13]: -1.89 | interaction score [14]: -1.46 | interaction score [15]: -1.66 | interaction score [16]: -1.33 | interaction score [17]: -1.62 | interaction score [18]: -0.00053 | interaction score [19]: -1.18 | interaction score [20]: -0.375 | interaction score [21]: -1.39 | interaction score [22]: -1.67 | interaction score [23]: -1.22 | interaction score [24]: -1.82 | interaction score [25]: -1.61 | interaction score [26]: -0.752 | interaction score [27]: 0.462 | interaction score [28]: -1 | interaction score [29]: -0.212 | interaction score [30]: -0.847 | interaction score [31]: -1.7 | interaction score [32]: -1.6 | interaction score [33]: -1.58 | interaction score [34]: -1.55 | interaction score [35]: -1.42 | interaction score [36]: 2.04

Further lines, results first:

interaction score [37]: -0.205 | interaction score [38]: 1 | interaction score [39]: 0.113 | interaction score [40]: 1.03
Binder: DKNQELKKEIEELERENWELEKKIQELKQ [P6bHq]

interaction score [41]: -1.57 | interaction score [42]: -1.79 | interaction score [43]: -1.85 | interaction score [44]: -2.04 | interaction score [45]: -1.79 | interaction score [46]: -1.19 | interaction score [47]: -1.32 | interaction score [48]: -1.75 | interaction score [49]: -0.824
Binder: DKNAALKAKNAALEAKIAALEAEIAALEG [4H4001-AA]
